In publication PMC11210195 (2024):

Assays:
mAb1 WT-AAA = mAb1 WT-AAA (human, UniProt P01857 = IgG part); assay: SPR
[1] = molecular target: mAb1 WT (human IgG1 Fc WT) (human, UniProt P01857 = IgG part); assay: SPR

B1: TRIM21 PRYSPRY domain (domain or fragment)
chain: GLKKMLRTCAVHITLDPDTANPWLILSEDRRQVRLGDTQQSIPGNEERFDSYPMVLGAQHFHSGKHYWEVDVTGKEAWDLGVCRDSVRRKGHFLLSSKSGFWTIWLWNKQKYEAGTYPQTPLHLQVPPCQVGIFLDYEAGMVSFYNITDHGSLIYSFSECAFTGPLRPFFSPGFNDGGKNTAPLTLCPLNIGSQGSTDY
modifications: biotinylated where it was captured via monovalent streptavidin
koff (mAb1 WT-AAA): 0.105 s⁻¹ | koff [1]: 0.0994 s⁻¹
